Substrate in data set [1]: CC1(CN)CCN(c2cnc(Sc3cccc(Cl)c3Cl)c(N)n2)CC1
The note with it: Homo sapiens; filed as negative allosteric modulator; dose 0.2 µM.

Substrate in data set [2]: CC1(CN)CCN(c2cnc(Sc3cccc(Cl)c3Cl)c(N)n2)CC1
Conditions: Homo sapiens; filed as negative allosteric modulator; dose 0.08 µM.
Description: Non-competitive inhibition of wild-type human SHP2 (1 to 535 residues) using DiFMUP as substrate assessed as Km at 0.08 uM measured by Lineweaver-Burk plot analysis

Substrate in data set [3]: CC1(CN)CCN(c2cnc(Sc3cccc(Cl)c3Cl)c(N)n2)CC1
Conditions: Homo sapiens; filed as negative allosteric modulator; dose 0.032 µM.
Description: Non-competitive inhibition of wild-type human SHP2 (1 to 535 residues) using DiFMUP as substrate assessed as Km at 0.032 uM measured by Lineweaver-Burk plot analysis

B1: Tyrosine-protein phosphatase non-receptor type 11 (Homo sapiens), Q06124 (protein)
chain: MTSRRWFHPNITGVEAENLLLTRGVDGSFLARPSKSNPGDFTLSVRRNGAVTHIKIQNTGDYYDLYGGEKFATLAELVQYYMEHHGQLKEKNGDVIELKYPLNCADPTSERWFHGHLSGKEAEKLLTEKGKHGSFLVRESQSHPGDFVLSVRTGDDKGESNDGKSKVTHVMIRCQELKYDVGGGERFDSLTDLVEHYKKNPMVETLGTVLQLKQPLNTTRINAAEIESRVRELSKLAETTDKVKQGFWEEFETLQQQECKLLYSRKEGQRQENKNKNRYKNILPFDHTRVVLHDGDPNEPVSDYINANIIMPEFETKCNNSKPKKSYIATQGCLQNTVNDFWRMVFQENSRVIVMTTKEVERGKSKCVKYWPDEYALKEYGVMRVRNVKESAAHDYTLRELKLSKVGQGNTERTVWQYHFRTWPDHGVPSDPGGVLDFLEEVHHKQESIMDAGPVVVHCSAGIGRTGTFIVIDILIDIIREKGVDCDIDVPKTIQMVRSQRSGMVQTEAQYRFIYMAVQHYIETLQRRIEEEQKSKRKGHEYTNIKYSLADQTSGDQSPLPPCTPTPPCAEMREDSARVYENVGLMQQQKSFR
B1: the figures for the Km in data set [1], in data set [2] and in data set [3] were 142 µM, 103 µM and 95.4 µM, respectively.

What is called Km is the substrate concentration at which the rate is half of its maximum.
